Reference: patent publication US20220411504A1 (Janssen / Centocor, published 2022)

Key:
[1] = target: HLA-G on cells (K562-HLA-G and HLA-G expressing tumor cells) (human); test: cell-based or functional assay
[2] = target: T1, CD3W147 (homodimeric CD3εγ-Fc) (human, biotinylated); test: ELISA, E. coli supernatant (heated to 60° C., cooled) on biotinylated CD3W147
T1 construct: also called recombinant CD3
T1 chain: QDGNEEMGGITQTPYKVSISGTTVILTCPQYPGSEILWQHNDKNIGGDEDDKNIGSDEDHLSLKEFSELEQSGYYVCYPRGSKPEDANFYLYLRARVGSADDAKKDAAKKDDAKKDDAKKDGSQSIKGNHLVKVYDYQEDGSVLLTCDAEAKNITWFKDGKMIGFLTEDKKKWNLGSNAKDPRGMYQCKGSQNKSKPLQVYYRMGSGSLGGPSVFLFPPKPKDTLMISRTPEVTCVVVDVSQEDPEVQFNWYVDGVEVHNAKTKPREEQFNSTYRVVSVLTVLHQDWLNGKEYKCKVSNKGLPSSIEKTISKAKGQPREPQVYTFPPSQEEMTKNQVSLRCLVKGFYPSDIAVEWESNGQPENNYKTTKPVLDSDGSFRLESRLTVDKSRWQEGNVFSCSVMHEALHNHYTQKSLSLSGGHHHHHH

[3] = target: T2, Human CD3 epsilon (CD3ε) of the T cell receptor complex on cells (human, UniProt P07766 23-207); test: flow cytometry, E. coli supernatant on human T cells
T2 construct: On Jurkat cells and primary human (pan) T cells; also called T-cell surface glycoprotein CD3 epsilon chain; T3E
T2 sequence (P07766 23-207 limits assumed, one chain of several): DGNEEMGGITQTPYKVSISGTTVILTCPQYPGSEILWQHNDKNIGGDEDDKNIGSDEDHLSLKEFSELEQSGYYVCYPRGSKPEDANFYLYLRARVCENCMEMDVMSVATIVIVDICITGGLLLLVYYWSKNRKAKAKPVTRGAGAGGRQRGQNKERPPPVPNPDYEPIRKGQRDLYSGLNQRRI

| Binder | Cytotoxicity, EC50 (T cell-mediated, NCI-H2009-b2m target cells, 72 hr) [1] [nM] | binding result [2] | MFI (n = 2) [3] |
| --- | --- | --- | --- |
| HC3B214 (bispecific antibody, human IgG1, kappa, L234A L235A) heavy: EVQLVESGGGLVKPGGSLRLSCAASGFTFSRYNMNWVRQAPGKGLEWVSSISTSSNYIYYADSVKGRFTFSRDNAKNSLDLQMSGLRAEDTAIYYCTRGWGPFDYWGQGTLVTVSSASTKGPSVFPLAPSSKSTSGGTAALGCLVKDYFPEPVTVSWNSGALTSGVHTFPAVLQSSGLYSLSSVVTVPSSSLGTQTYICNVNHKPSNTKVDKKVEPKSCDKTHTCPPCPAPEAAGGPSVFLFPPKPKDTLMISRTPEVTCVVVSVSHEDPEVKFNWYVDGVEVHNAKTKPREEQYNSTYRVVSVLTVLHQDWLNGKEYKCKVSNKALPAPIEKTISKAKGQPREPQVYVYPPSREEMTKNQVSLTCLVKGFYPSDIAVEWESNGQPENNYKTTPPVLDSDGSFALVSKLTVDKSRWQQGNVFSCSVMHEALHNHYTQKSLSLSPG light: DIQMTQSPSSLSASVGDRVTITCRARQSIGTAIHWYQQKPGKAPKLLIKYASESISGVPSRFSGSGSGTDFTLTISSVQPEDFATYYCQQSGSWPYTFGQGTKLEIKRTVAAPSVFIFPPSDEQLKSGTASVVCLLNNFYPREAKVQWKVDNALQSGNSQESVTEQDSKDSTYSLSSTLTLSKADYEKHKVYACEVTHQGLSSPVTKSFNRGEC scFv: not shown | 0.138 | – | – |
| HC3B238 (bispecific antibody, human IgG1, kappa, L234A L235A) scFv: EVQLVESGGGLVKPGGSLRLSCAASGFTFSRYNMNWVRQAPGKGLEWVSSISTSSNYIYYADSVKGRFTFSRDNAKNSLDLQMSGLRAEDTAIYYCTRGWGPFDYWGQGTLVTVSSGGSEGKSSGSGSESKSTGGSDIQMTQSPSSLSASVGDRVTITCRARQSIGTAIHWYQQKPGKAPKLLIKYASESISGVPSRFSGSGSGTDFTLTISSVQPEDFATYYCQQSGSWPYTFGQGTKLEIKEPKSSDKTHTCPPCPAPEAAGGPSVFLFPPKPKDTLMISRTPEVTCVVVSVSHEDPEVKFNWYVDGVEVHNAKTKPREEQYNSTYRVVSVLTVLHQDWLNGKEYKCKVSNKALPAPIEKTISKAKGQPREPQVYVYPPSREEMTKNQVSLTCLVKGFYPSDIAVEWESNGQPENNYKTTPPVLDSDGSFALVSKLTVDKSRWQQGNVFSCSVMHEALHNHYTQKSLSLSPGK heavy: QVQLQQSGPGLVKPSQTLSLTCAISGDSVSSNRAAWNWIRQSPSRGLEWLGRTYYRSKWYNDYAVSVKSRITINPDTSKNQISLQLNSVTPEDTAVYYCARVRPGIPFDYWGQGTPVTVSSASTKGPSVFPLAPSSKSTSGGTAALGCLVKDYFPEPVTVSWNSGALTSGVHTFPAVLQSSGLYSLSSVVTVPSSSLGTQTYICNVNHKPSNTKVDKKVEPKSCDKTHTCPPCPAPEAAGGPSVFLFPPKPKDTLMISRTPEVTCVVVSVSHEDPEVKFNWYVDGVEVHNAKTKPREEQYNSTYRVVSVLTVLHQDWLNGKEYKCKVSNKALPAPIEKTISKAKGQPREPQVYVLPPSREEMTKNQVSLLCLVKGFYPSDIAVEWESNGQPENNYLTWPPVLDSDGSFFLYSKLTVDKSRWQQGNVFSCSVMHEALHNHYTQKSLSLSPG light: not shown | 0.0173 | – | – |
| HC3B237 (bispecific antibody, human IgG1, kappa, L234A L235A) scFv: DIQMTQSPSSLSASVGDRVTITCRARQSIGTAIHWYQQKPGKAPKLLIKYASESISGVPSRFSGSGSGTDFTLTISSVQPEDFATYYCQQSGSWPYTFGQGTKLEIKGGSEGKSSGSGSESKSTGGSEVQLVESGGGLVKPGGSLRLSCAASGFTFSRYNMNWVRQAPGKGLEWVSSISTSSNYIYYADSVKGRFTFSRDNAKNSLDLQMSGLRAEDTAIYYCTRGWGPFDYWGQGTLVTVSSEPKSSDKTHTCPPCPAPEAAGGPSVFLFPPKPKDTLMISRTPEVTCVVVSVSHEDPEVKFNWYVDGVEVHNAKTKPREEQYNSTYRVVSVLTVLHQDWLNGKEYKCKVSNKALPAPIEKTISKAKGQPREPQVYVYPPSREEMTKNQVSLTCLVKGFYPSDIAVEWESNGQPENNYKTTPPVLDSDGSFALVSKLTVDKSRWQQGNVFSCSVMHEALHNHYTQKSLSLSPGK heavy: QVQLQQSGPGLVKPSQTLSLTCAISGDSVSSNRAAWNWIRQSPSRGLEWLGRTYYRSKWYNDYAVSVKSRITINPDTSKNQISLQLNSVTPEDTAVYYCARVRPGIPFDYWGQGTPVTVSSASTKGPSVFPLAPSSKSTSGGTAALGCLVKDYFPEPVTVSWNSGALTSGVHTFPAVLQSSGLYSLSSVVTVPSSSLGTQTYICNVNHKPSNTKVDKKVEPKSCDKTHTCPPCPAPEAAGGPSVFLFPPKPKDTLMISRTPEVTCVVVSVSHEDPEVKFNWYVDGVEVHNAKTKPREEQYNSTYRVVSVLTVLHQDWLNGKEYKCKVSNKALPAPIEKTISKAKGQPREPQVYVLPPSREEMTKNQVSLLCLVKGFYPSDIAVEWESNGQPENNYLTWPPVLDSDGSFFLYSKLTVDKSRWQQGNVFSCSVMHEALHNHYTQKSLSLSPG light: not shown | 0.133 | – | – |
| HC3B236 (bispecific antibody, human IgG1, kappa, L234A L235A) scFv: QSALTQPASVSGSPGQSITISCTGTSSNIGTYKFVSWYQQHPGKAPKVMIYEVSKRPSGVSNRFSGSKSGNTASLTISGLQAEDEADYYCVSYAGSGTLLFGGGTKLTVLGGSEGKSSGSGSESKSTGGSQVQLQQSGPGLVKPSQTLSLTCAISGDSVFNNNAAWSWIRQSPSRGLEWLGRTYYRSKWLYDYAVSVKSRITINPDTSKNQFSLQLNSVTPEDTAVYYCARGYSSSFDYWGQGTLVTVSSEPKSSDKTHTCPPCPAPEAAGGPSVFLFPPKPKDTLMISRTPEVTCVVVSVSHEDPEVKFNWYVDGVEVHNAKTKPREEQYNSTYRVVSVLTVLHQDWLNGKEYKCKVSNKALPAPIEKTISKAKGQPREPQVYVYPPSREEMTKNQVSLTCLVKGFYPSDIAVEWESNGQPENNYKTTPPVLDSDGSFALVSKLTVDKSRWQQGNVFSCSVMHEALHNHYTQKSLSLSPG heavy: QVQLQQSGPGLVKPSQTLSLTCAISGDSVSSNRAAWNWIRQSPSRGLEWLGRTYYRSKWYNDYAVSVKSRITINPDTSKNQISLQLNSVTPEDTAVYYCARVRPGIPFDYWGQGTPVTVSSASTKGPSVFPLAPSSKSTSGGTAALGCLVKDYFPEPVTVSWNSGALTSGVHTFPAVLQSSGLYSLSSVVTVPSSSLGTQTYICNVNHKPSNTKVDKKVEPKSCDKTHTCPPCPAPEAAGGPSVFLFPPKPKDTLMISRTPEVTCVVVSVSHEDPEVKFNWYVDGVEVHNAKTKPREEQYNSTYRVVSVLTVLHQDWLNGKEYKCKVSNKALPAPIEKTISKAKGQPREPQVYVLPPSREEMTKNQVSLLCLVKGFYPSDIAVEWESNGQPENNYLTWPPVLDSDGSFFLYSKLTVDKSRWQQGNVFSCSVMHEALHNHYTQKSLSLSPG light: not shown | 4.54 | – | – |
| CD3W234-HL-E.c. (scFv, E. coli supernatant; also called CD3B815-HL-scFV) scFv: EVQLVESGGGLVKPGGSLRLSCAASGFTFSRYNMNWVRQAPGKGLEWVSSISTSSNYIYYADSVKGRFTFSRDNAKNSLDLQMSGLRAEDTAIYYCTRGWGPFDYWGQGTLVTVSSGTEGKSSGSGSESKSTDILLTQSPGILSVSPGERVSFSCRARQSIGTAIHWYQQRTNGSPRLLIKYASESISGIPSRFSGSGSGTDFTLTINSVESEDIADYYCQQSNSWPYTFGGGTKLEIKGPGGQHHHHHHGAYPYDVPDYAS | – | binds | 66800 |
| CD3W248-HL-E.c. (scFv, E. coli supernatant) scFv: EVQLVESGGGLVKPGGSLRLSCAASGFTFSRYNMNWVRQAPGKGLEWVSSISTSSNYIYYADSVKGRFTFSRDNAKNSLDLQMSGLRAEDTAIYYCTRGWGPFDYWGQGTLVTVSSGTEGKSSGSGSESKSTDILLTQSPGILSVSPGERVSFSCRARQSIGTAIHWYQQRTNGSPRLLIKYASESISGIPSRFSGSGSGTDFTLTINSVESEDIADYYCQQSGSWPYTFGGGTKLEIKGPGGQHHHHHHGAYPYDVPDYAS | – | binds | 60400 |
| CD3W245-HL-E.c. (scFv, E. coli supernatant) scFv: EVQLVESGGGLVKPGGSLRLSCAASGFTFSRYNMNWVRQAPGKGLEWVSSISTSSNYIYYADSVKGRFTFSRDNAKNSLDLQMSGLRAEDTAIYYCTRGWGPFDYWGQGTLVTVSSGTEGKSSGSGSESKSTDIQMTQSPSSLSASVGDRVTITCRARQSIGTAIHWYQQKPGKAPKLLIKYASESISGVPSRFSGSGSGTDFTLTISSLQPEDFATYYCQQSGSWPYTFGQGTKLEIKGPGGQHHHHHHGAYPYDVPDYAS | – | binds | 178000 |
| CD3W238-HL-E.c. (scFv, E. coli supernatant) scFv: EVQLVESGGGLVKPGGSLRLSCAASGFTFSRYNMNWVRQAPGKGLEWVSSISTSSNYIYYADSVKGRFTFSRDNAKNSLDLQMSGLRAEDTAIYYCTRGWGPFDYWGQGTLVTVSSGTEGKSSGSGSESKSTDIQMTQSPSSLSASVGDRVTITCRARQSIGTAIHWYQQKPGKAPKLLIYYASESISGVPSRFSGSGSGTDFTLTISSLQPEDFATYYCQQSNSWPYTFGQGTKLEIKGPGGQHHHHHHGAYPYDVPDYAS | – | binds | 137000 |
| CD3W242-HL-E.c. (scFv, E. coli supernatant) scFv: EVQLVESGGGLVKPGGSLRLSCAASGFTFSRYNMNWVRQAPGKGLEWVSSISTSSNYIYYADSVKGRFTFSRDNAKNSLDLQMSGLRAEDTAIYYCTRGWGPFDYWGQGTLVTVSSGTEGKSSGSGSESKSTDIQMTQSPSSLSASVGDRVTITCRARQSIGTAIHWYQQKPGKAPKLLIKYASESISGVPSRFSGSGSGTDFTLTISSLQPEDFATYYCQQSNSWPYTFGQGTKLEIKGPGGQHHHHHHGAYPYDVPDYAS | – | binds | 126000 |
| CD3W241-HL-E.C. (scFv) EVQLVESGGGLVKPGGSLRLSCAASGFTFSRYNMNWVRQAPGKGLEWVSSISTSSNYIYYADSVKGRFTFSRDNAKNSLDLQMSGLRAEDTAIYYCTRGWGPFDYWGQGTLVTVSSGTEGKSSGSGSESKSTDIQMTQSPSSLSASVGDRVTITCRARQSIGTAIHWYQQKPGKAPKLLIYYASESISGVPSRFSGSGSGTDFTLTISSVQPEDFATYYCQQSNSWPYTFGQGTKLEIKGPGGQHHHHHHGAYPYDVPDYAS | – | – | 121000 |
